Laboratory results reported in patent US20220348665A1 (ABL BIO, published 2022).
Positions count from the first letter of the chain named. Where “and” joins values, the source holds several entries; their conditions need not be identical. Equal values may be shown once. Read-outs that look alike come from different tables or passages of the source.

Experiments:
[1] = biological target: T1, alpha-synuclein aggregates (human alpha-synuclein, fibril) (human, UniProt P37840 1-140); assay: SPR (BIAcore T200), antibody captured on protein A chip, 1:1 model
[2] = biological target: T1, alpha-synuclein aggregates (human …); assay: SPR (BIAcore T200), antibody captured on Protein A chip, alpha-synuclein fibril as analyte (file ProteinA-Fibril-main-5th), 25 C, fit 1:1 Binding
[3] = biological target: T1, alpha-synuclein aggregates (human …); assay: sandwich ELISA: antibody coated at 0.04 to 400 nM, 2000 ng/ml alpha-synuclein aggregates, biotin-conjugated antibody and HRP-streptavidin; value is C of the 4-P fit table under the plot, which the text calls EC50
[4] = biological target: T2, human IGF1R, endogenous, on the surface of breast cancer cell lines (MCF-7, JIMT-1, BT474) (human, UniProt P08069 31-1367); assay: FACS on MCF-7 cells, antibody 10 ug/mL (2nd Ab only 2.86, not treated 1.88)
T2 construct: also called endogenous IGF1R on the cell surface; MCF-7 cell line

[5] = biological target: T1, alpha-synuclein aggregates (human …); assay: SPR (BIAcore T200), antibody captured on Protein A chip, alpha-synuclein fibril as analyte (file ProteinA-Fibril-main-5th), 25 C, fit 1:1 Binding; remark: listed apart in the source
[6] = biological target: T3, monkey IGF1R, recombinant, His tag at C-terminus (monkey); assay: ELISA, monkey IGF1R coated, anti-human Fab HRP
T3 construct: also called Monkey IGF1R (National Research Council Canada)

[7] = biological target: T1, alpha-synuclein aggregates (human …); assay: ELISA on coated alpha-synuclein aggregates, antibody 5-fold dilutions from 400 nM, anti-human Fc-HRP; value is C of the 4-P fit table under the plot
[8] = biological target: T1, alpha-synuclein aggregates (human …); assay: ELISA on alpha-synuclein aggregates coated at 1 ug/ml, antibody 5-fold dilutions from 400 nM, anti-human Fc-HRP; value is C of the 4-P fit table under the plot
[9] = biological target: T1, alpha-synuclein aggregates (human …); assay: SPR (BIAcore T200), antibody captured on Protein A chip, alpha-synuclein fibril as analyte (file ProteinA-Fibril-main-5th), 25 C, fit 1:1 Binding; remark: listed apart in the source
[10] = biological target: T1, alpha-synuclein aggregates (human …); assay: sandwich ELISA, antibody coated, aggregates 2000 ng/ml
[11] = biological target: T4, mouse IGF1R on bEND.3 mouse brain endothelial cells (mouse, UniProt Q60751 31-1373); assay: FACS on bEND.3 mouse brain endothelial cells
T4 construct: whole, on cells; also called IGF1R expressed on the surface of brain endothelial cells
T4 sequence (Q60751 31-1373): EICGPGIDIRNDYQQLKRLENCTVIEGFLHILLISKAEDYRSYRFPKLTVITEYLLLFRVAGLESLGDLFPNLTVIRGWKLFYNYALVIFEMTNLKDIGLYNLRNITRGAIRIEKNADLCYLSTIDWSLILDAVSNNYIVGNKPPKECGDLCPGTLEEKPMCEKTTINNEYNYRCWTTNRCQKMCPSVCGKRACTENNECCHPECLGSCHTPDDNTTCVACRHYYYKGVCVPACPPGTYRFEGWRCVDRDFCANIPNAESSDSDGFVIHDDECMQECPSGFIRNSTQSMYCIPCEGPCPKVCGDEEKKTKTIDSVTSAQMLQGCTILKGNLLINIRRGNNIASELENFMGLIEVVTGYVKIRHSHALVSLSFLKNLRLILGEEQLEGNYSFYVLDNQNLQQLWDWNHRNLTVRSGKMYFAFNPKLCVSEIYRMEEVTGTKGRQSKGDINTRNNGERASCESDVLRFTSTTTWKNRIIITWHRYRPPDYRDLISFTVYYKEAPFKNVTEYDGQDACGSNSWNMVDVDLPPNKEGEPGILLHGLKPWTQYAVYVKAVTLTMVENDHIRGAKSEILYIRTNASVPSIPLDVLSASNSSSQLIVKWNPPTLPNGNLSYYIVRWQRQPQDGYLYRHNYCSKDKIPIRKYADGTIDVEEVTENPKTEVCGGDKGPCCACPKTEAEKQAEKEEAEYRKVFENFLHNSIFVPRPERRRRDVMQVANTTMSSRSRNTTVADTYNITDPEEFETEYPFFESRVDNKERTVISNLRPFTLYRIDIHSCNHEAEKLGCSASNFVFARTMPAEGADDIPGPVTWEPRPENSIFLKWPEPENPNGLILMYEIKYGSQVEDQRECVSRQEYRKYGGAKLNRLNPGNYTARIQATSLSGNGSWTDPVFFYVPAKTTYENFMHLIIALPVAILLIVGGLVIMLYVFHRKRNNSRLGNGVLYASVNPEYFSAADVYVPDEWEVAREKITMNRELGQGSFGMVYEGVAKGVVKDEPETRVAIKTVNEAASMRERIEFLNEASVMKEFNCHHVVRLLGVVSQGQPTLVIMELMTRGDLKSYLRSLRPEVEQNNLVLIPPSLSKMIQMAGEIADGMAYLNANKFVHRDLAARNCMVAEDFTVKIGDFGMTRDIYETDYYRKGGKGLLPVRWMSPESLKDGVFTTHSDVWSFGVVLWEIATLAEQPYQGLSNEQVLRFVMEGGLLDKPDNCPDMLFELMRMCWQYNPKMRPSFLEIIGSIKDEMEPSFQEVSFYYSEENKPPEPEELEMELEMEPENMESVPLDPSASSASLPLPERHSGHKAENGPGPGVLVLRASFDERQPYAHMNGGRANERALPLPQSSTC

[12] = biological target: T5, human IGF1R extracellular domain, recombinant, His tag at C-terminus (human, UniProt P08069 31-932); assay: ELISA on coated IGF1R, antibody 5-fold dilutions from 400 nM, anti-human Fc-HRP; C of the 4-P fit (D 2.68), extrapolated: curve at baseline up to about 3 nM, about 0.8 at 80 nM and about 1.75 at 400 nM, no plateau; the text says this monospecific antibody did not bind
T5 construct: also called human IGF1R ECD; ECD of IGF1R

[13] = biological target: T5, human IGF1R extracellular domain, …; assay: ELISA on coated IGF1R, antibody 5-fold dilutions from 400 nM, anti-human Fc-HRP; C of the 4-P fit (D 0.945, R^2 0.985), extrapolated: curve at baseline up to 16 nM, about 0.2 at 80 nM and about 0.75 at 400 nM, no plateau; the text says this monospecific antibody did not bind
[14] = biological target: T5, human IGF1R extracellular domain, …; assay: ELISA, human IGF1R coated, anti-human Fab HRP
[15] = biological target: T5, human IGF1R extracellular domain, …; assay: SPR (Biacore T200), His-tagged human IGF1R ECD captured by anti-his antibody on CM4 chip, bivalent model
[16] = biological target: T5, human IGF1R extracellular domain, …; assay: SPR (Biacore T200), His-tagged human IGF1R ECD captured by anti-His antibody on CM4 chip, 1564 IgG as analyte, 25 C, fit Bivalent Analyte; lower panel
[17] = biological target: T5, human IGF1R extracellular domain, …; assay: SPR (Biacore T200), His-tagged human IGF1R ECD captured by anti-His antibody on CM4 chip, 1564 IgG as analyte, 25 C, fit Bivalent Analyte; upper panel

B1: hu11F11(ver.4) (antibody, human IgG1, V domains shown)
VH: EVQLVESGGGLVQPGGSLRLSCATSGFTFSDFYMEWVRQPPGKRLEWIAASRNKANDYTTEYSASVKGRFTVSRDTSKSSLYLQMNSLRAEDTAIYYCARDAHGKPFAYWGQGTTVTVSS
VL: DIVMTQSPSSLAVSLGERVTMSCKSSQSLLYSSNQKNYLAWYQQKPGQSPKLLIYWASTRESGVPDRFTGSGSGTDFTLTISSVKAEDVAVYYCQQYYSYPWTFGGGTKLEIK
notes: Human IgG1 backbone
- Kd [1]: 0.0204 nM
- koff [2]: 0.000291 s⁻¹
- kon [2]: 1.07e+06 M⁻¹ s⁻¹
- EC50 [3]: 12.9 nM

B2: hu11F11(ver.2) (antibody, human IgG1, kappa, V domains shown)
VH: B1 VH with T76D
VL: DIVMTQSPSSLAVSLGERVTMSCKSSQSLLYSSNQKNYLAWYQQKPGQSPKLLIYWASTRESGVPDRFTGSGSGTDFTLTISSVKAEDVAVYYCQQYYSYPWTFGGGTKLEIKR
notes: also called hu11F11 WT; humanized antibody 11F11 (ver. 2)
- Kd [1]: 0.0596 nM
- GeoMean, Internalization at 37° C. [4]: 3.18
- koff [5]: 0.000173 s⁻¹
- kon [5]: 1.19e+06 M⁻¹ s⁻¹
- EC50 [3]: 15.1 nM

B3: ch11F11-1564 (bivalent bispecific antibody: chimeric 11F11 IgG with 1564 scFv on each heavy chain) (bispecific antibody, not shown: a dimerising Fc or GST)
heavy (part 1 of 2): B1 VH with V5Q, T71I, K78Q, S80I, S87A, T115L, S120A
heavy (part 2 of 2): GGGGSGGGGSGGGGSQSVLTQPPSASGTPGQRVTISCTGSSSNIGSNDVSWYQQLPGTAPKLLIYANSNRPSGVSDRFSGSKSGTSASLAISGLRSEDEADYYCGAWDDSLNGYVFGCGTKLTVLGGGGSGGGGSGGGGSGGGGSEVQLLESGGGLVQPGGSLRLSCAASGFTFSSYDMSWVRQAPGKCLEWVSAISYDNGNTYYADSVKGRFTISRDNSKNTLYLQMNSLRAEDTAVYYCAKGVLTTLMNWFDYWGQGTLVTVSS
light: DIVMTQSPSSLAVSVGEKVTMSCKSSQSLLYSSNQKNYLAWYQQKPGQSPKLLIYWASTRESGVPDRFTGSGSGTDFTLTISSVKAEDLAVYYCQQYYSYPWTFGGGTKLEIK
- EC50 [6]: 2.48 nM and 2.21 nM
- EC50 [7]: 1.5 nM
- EC50 [8]: 22.7 nM

B4: hu11F11(ver.1) (antibody, human IgG1, V domains shown)
VH: B1 VH with V72I, T76D
VL: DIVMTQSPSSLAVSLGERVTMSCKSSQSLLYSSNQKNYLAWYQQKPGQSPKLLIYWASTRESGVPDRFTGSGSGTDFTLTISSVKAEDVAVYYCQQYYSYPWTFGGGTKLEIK
notes: Human IgG1 backbone
- koff [9]: 5.36e-05 s⁻¹
- kon [9]: 845000 M⁻¹ s⁻¹
- EC50 [3]: 11.5 nM

B5: hu11F11(ver.3) (antibody, human IgG1, V domains shown)
VH: B1 VH with V72I
VL: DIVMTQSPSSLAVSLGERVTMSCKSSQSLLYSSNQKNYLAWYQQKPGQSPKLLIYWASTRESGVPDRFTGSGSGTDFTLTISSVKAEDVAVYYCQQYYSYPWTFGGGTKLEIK
notes: Human IgG1 backbone
- Kd [1]: 0.0316 nM
- koff [5]: 0.000266 s⁻¹
- kon [5]: 1.07e+06 M⁻¹ s⁻¹
- EC50 [3]: 13.4 nM

B6: Ch11F11 (chimeric 11F11 antibody, human IgG1) (antibody, V domains shown)
VH: B1 VH with V5Q, T71I, K78Q, S80I, S87A, T115L, S120A
VL: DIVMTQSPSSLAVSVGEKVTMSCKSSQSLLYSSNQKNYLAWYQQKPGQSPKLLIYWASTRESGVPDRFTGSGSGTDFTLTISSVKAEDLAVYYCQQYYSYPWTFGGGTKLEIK
notes: Chimeric human IgG1
- EC50 [10]: 12.5 nM
- binding result [11]: no binding
- Kd [1]: 0.0247 nM
- koff [9]: 0.000563 s⁻¹
- kon [9]: 609000 M⁻¹ s⁻¹
- EC50 [7]: 1.27 nM
- EC50 [8]: 33.8 nM
- EC50 [12]: 201 nM
- EC50 [13]: 196 nM

B7: 1564 IgG (anti-IGF1R clone 1564, full IgG1 form) (antibody, V domains shown)
VH: EVQLLESGGGLVQPGGSLRLSCAASGFTFSSYDMSWVRQAPGKGLEWVSAISYDNGNTYYADSVKGRFTISRDNSKNTLYLQMNSLRAEDTAVYYCAKGVLTTLMNWFDYWGQGTLVTVSS
VL: QSVLTQPPSASGTPGQRVTISCTGSSSNIGSNDVSWYQQLPGTAPKLLIYANSNRPSGVPDRFSGSKSGTSASLAISGLRSEDEADYYCGAWDDSLNGYVFGGGTKLTVL
- EC50 [14]: 0.0823 nM
- Kd [15]: 2.53 nM
- koff [16]: 2.53e-06 s⁻¹
- koff [17]: 2.41e-06 s⁻¹
- kon [17]: 902 M⁻¹ s⁻¹
